In patent US12611439B2, “Ionic self-assembling peptides” (3-D MATRIX, LTD., priority 2018, dated 2026):
Entries after “also recorded” stand apart in the source; their conditions may differ. Peptide text beside a SMILES is read from it.

Tests used:
pig stomach submucosa = experiment: Submucosal injection in in vivo porcine model, stomach; conditions: for Appearance of stomach mucosa / submucosal elevation after injection / submucosal elevation over time compared with saline and MucoUp: pH 7.5; for Appearance of stomach mucosa: 2 mL injected; for submucosal elevation after injection / submucosal elevation over time compared with saline and MucoUp: 2 mL of 0.1% (w/v) peptide, 0.9% NaCl, pig stomach
Protocol: An in vivo porcine animal model was used to perform endoscopic mucosal and submucosal dissections as described in Uraoka et al. (2009) Drug Des. Devel. Ther. 2:131-8, incorporated herein by reference. Briefly, 2 mL of select peptide formulations were injected in between the […] in stomach of a pig and the submucosa was dissected using electro-knife. The gross appearance of the injection site and of dissected submucosal tissues at the injection sites were analyzed. […] Therefore, an in vivo porcine model system was used to assess the ability of these compositions to induce submucosal elevation upon injection into gastrointestinal submucosa, and the degree of tissue damage. In this model, submucosal injections with liquid compositions were performed and the morphology of the site of injection analyzed. Submucosal injection with aqueous solutions is used during the excision of lesions from the gastrointestinal tract in order to facilitate removal of the lesion by providing a safety cushion during resection (see, e.g., Kim et al. (2013) World J. Gastroenterol. 19(20): 3069-76, incorporated herein by reference). Here, aqueous pharmaceutical compositions comprising three exemplary self-assembling peptides formulated at pH 7.5: KLNL12 (SEQ ID NO:21), NLKL12 (SEQ ID NO:23) or KIQI13 (SEQ ID NO:29), were compared to an aqueous pharmaceutical composition comprising the previously described RADA16 self-assembling peptide (formulated at pH 2.5), a 0.4% solution of sodium hyaluronate (MucoUp®, Boston Scientific Japan K.K., Tokyo, Japan), and saline, pH 7.5.

porcine esophagus mucosa = experiment: Submucosal injection in in vivo porcine esophagus
Protocol: In another embodiment, mucosal aggregation visualized as white precipitate near the injection site was evaluated in an in vivo porcine esophagus.

[1] = Frequency sweep test (storage modulus) before and after exposure to DMEM; type: physicochemical; conditions: pH 7.5; for increase of mechanical strength after exposure to DMEM: 0.15% (w/v); for rheological properties (mechanical strength) before and after exposure to DMEM: 1% (w/v) peptide
Protocol: Peptides formulated as aqueous solutions were placed between the plates of a rheometer (DHR-1, TA Instruments, 20 mm plates at a measuring geometry of 500 μm or 40 mm cone and plate at a measuring geometry of 2.0° of cone angle) and frequency stress sweep tests were performed at 0.1 Hz to 10 Hz of frequency with 0.1% of strain; measurements were performed after 2 minutes of relaxation time at 37° C. To do frequency sweep tests after exposure to Dulbecco's Modified Eagle Medium (DMEM), 10 mL of DMEM was added in chamber surrounding the plates, the sample in plates was submerged into the DMEM and the frequency test was performed as described after 20 minutes.
Rheological properties of aqueous pharmaceutical compositions comprising the exemplary self-assembling peptides KLNL12 (SEQ ID NO:21), KIQI13 (SEQ ID NO:29), or NLEL12 (SEQ ID NO:33) were determined by performing a frequency sweep test over storage modulus.
In some embodiments, peptides formulated as aqueous solutions, volume 700 μl, were placed between the plates of a rheometer (DHR-1, TA Instruments, 40 mm cone and plate at a measuring geometry of 2.0° of cone angle) and frequency sweep tests were performed at 0.1 Hz to 10 Hz of frequency with 0.1% of strain; measurements were performed after 2 minutes of relaxation time at 37° C. In some embodiments, frequency sweep tests were performed after exposure to Dulbecco's Modified Eagle Medium (DMEM), where 10 mL of DMEM was added in chamber surrounding the plates, the sample in plates was submerged into the DMEM and the frequency test was performed as described after 20 minutes.

[2] = Appearance (solubility) of aqueous compositions at pH 2.5 and pH 7.5; type: physicochemical
Protocol: To determine the solubility of exemplary self-assembling peptides in aqueous pharmaceutical compositions formulated at acidic and neutral pH, the appearance of the pharmaceutical compositions was assessed. Homogenous and transparent appearance reflects sufficient solubility of the peptides in solution and minimal hydrogel formation. […] The appearance of exemplary self-assembling peptides at pH 2.5 and pH 7.5 is shown below in Table 6 and FIG. 20.

[3] = Net charge of self-assembling peptides in solution; type: physicochemical; conditions: for Net charge at pH 7.5: in solution at pH 7.5
Description: Several exemplary self-assembling peptides described herein (Table 5; SEQ ID NO:21-40) were designed to have a net charge, positive or negative, when formulated at pH 7.5. In contrast, previously-described self-assembling peptides have a net zero charge at the same pH.

[4] = Viscosity determination at increasing shear rate (shear thinning); type: physicochemical; conditions: 1% (w/v) peptide, pH 7.5
Protocol: Peptides formulated as aqueous solutions (200 μL), were placed between the plates of a rheometer (DHR-1, TA Instruments, 20 mm plates at a measuring geometry of 500 μm) and the viscosity was measured from 0.001 s^−1 to 100 s^−1 shear rate. Thixotropic Measurements
In some clinical applications, administration of pharmaceutical compositions comprising self-assembling peptides requires exposing the compositions to pressure and/or shear thinning (e.g., during injection through a syringe needle or transferred via a pump-based system). […] To determine the shear thinning properties of pharmaceutical compositions of the self-assembling peptides formulated at pH 7.5, formulations comprising varying ionic strengths were prepared using different concentrations of sodium chloride, and viscosity measured at increasing shear rates. Thixotropic properties of formulations were also determined as well as the storage modulus over time at specific frequencies and pressure.
FIGS. 6-8 show the experimentally determined viscosity of aqueous pharmaceutical compositions comprising either 1% (w/v) KLNL12 (SEQ ID NO:21), 1% (w/v) IQIK13 (SEQ ID NO:28), or 1% (w/v) NLEL12 (SEQ ID NO:33), at pH 7.5. FIGS. 9 and 10 show the experimentally determined viscosity of aqueous pharmaceutical compositions comprising either 1% KLNL12 (SEQ ID NO:21) or 1% NLEL12 (SEQ ID NO:33), and 0.9% NaCl (to mimic physiological conditions) at pH 7.5. […] That is, decreased viscosity with increasing sheer rate. This property may advantageously facilitate application and use of the pharmaceutical compositions (e.g., due to decreased viscosity while pumping) while maintaining a desirable viscosity at a site of application (e.g., where no sheer force is being applied).

[5] = porcine esophagus, compositions of Table 9

Compound: CC[C@H](C)[C@H](NC(=O)[C@H](CCC(N)=O)NC(=O)[C@@H](NC(=O)[C@H](CCCCN)NC(=O)[C@@H](NC(=O)[C@H](CCC(N)=O)NC(=O)[C@@H](NC(=O)[C@H](CCCCN)NC(=O)[C@@H](NC(=O)[C@H](CCC(N)=O)NC(=O)[C@@H](NC(=O)[C@H](CCCCN)NC(C)=O)[C@@H](C)CC)[C@@H](C)CC)[C@@H](C)CC)[C@@H](C)CC)[C@@H](C)CC)C(N)=O [KIQI12, Ac-KIQIKIQIKIQI-NH2] (Ac-KIQIKIQIKIQI-NH2)
- Appearance of stomach mucosa (pig stomach submucosa; 0.1% (w/v) peptide with NaCl 0.9%): do not appear to alter submucosal tissue morphology; also recorded: Clear/transparent
- Appearance of stomach mucosa (porcine esophagus mucosa; porcine esophagus, 0.1% (w/v) peptide with NaCl 0.9%, pH 7.5): cloudy/aggregation
- mucosal aggregation at injection sites (porcine esophagus mucosa; [5]): Mucosal aggregation was observed

Compound: CC(=O)N[C@@H](CC(C)C)C(=O)N[C@@H](CCC(=O)O)C(=O)N[C@@H](CC(C)C)C(=O)N[C@@H](CCC(N)=O)C(=O)N[C@@H](CC(C)C)C(=O)N[C@@H](CCC(=O)O)C(=O)N[C@@H](CC(C)C)C(=O)N[C@@H](CCC(N)=O)C(=O)N[C@@H](CC(C)C)C(=O)N[C@@H](CCC(=O)O)C(=O)N[C@@H](CC(C)C)C(=O)N[C@@H](CCC(N)=O)C(N)=O [LELQ12, Ac-LELQLELQLELQ-NH2] (Ac-LELQLELQLELQ-NH2)
- mucosal aggregation at injection sites (porcine esophagus mucosa; pig, in vivo): mucosal aggregation was not observed
- Appearance of stomach mucosa (porcine esophagus mucosa; pig, in vivo, pH 7.5): clear/transparent

Compound: CC(=O)N[C@@H](CCC(N)=O)C(=O)N[C@@H](CC(C)C)C(=O)N[C@@H](CCC(=O)O)C(=O)N[C@@H](CC(C)C)C(=O)N[C@@H](CCC(N)=O)C(=O)N[C@@H](CC(C)C)C(=O)N[C@@H](CCC(=O)O)C(=O)N[C@@H](CC(C)C)C(=O)N[C@@H](CCC(N)=O)C(=O)N[C@@H](CC(C)C)C(=O)N[C@@H](CCC(=O)O)C(=O)N[C@@H](CC(C)C)C(N)=O [QLEL12, Ac-QLELQLELQLEL-NH2] (Ac-QLELQLELQLEL-NH2)
- rheological property versus peptide concentration ([1]; 0.1% to 0.3% (w/v), 0.9% NaCl): linear relationship
- increase of mechanical strength after exposure to DMEM ([1]; 0.9% NaCl, frequency 0.1 Hz): 23 fold
- increase of mechanical strength after exposure to DMEM ([1]; 0.9% NaCl, frequency 1 Hz): 20 fold
- increase of mechanical strength after exposure to DMEM ([1]; 0.9% NaCl, frequency 10 Hz): 9 fold
- Appearance of stomach mucosa (pig stomach submucosa; 0.2% (w/v) peptide with NaCl 0.9%): no mucosal aggregation was observed; also recorded: do not appear to alter submucosal tissue morphology; also recorded: clear/transparent
- Appearance of stomach mucosa (porcine esophagus mucosa; porcine esophagus, 0.2% (w/v) peptide with NaCl 0.9%, pH 7.5): clear/transparent
- mucosal aggregation at injection sites (porcine esophagus mucosa; [5]): mucosal aggregation was not observed

Compound: Ac-IEIKIEIKIEIKI-NH2 [IEIK13]
- Appearance at different pH: At pH 7.5 [2]: phase separation and cloudy appearance

Compound: Ac-IKIQIKIQIKIQI-NH2 [IKIQ13]
- Net charge at pH 7.5 [3]: +3

Compound: Ac-INIKINIKINIKI-NH2 [INIK13]
- Net charge at pH 7.5 [3]: +3

Compound: Ac-IQIKIQIKIQIK-NH2 [IQIK12]
- Net charge at pH 7.5 [3]: +3

Compound: Ac-IQIKIQIKIQIKI-NH2 [IQIK13]
- Net charge at pH 7.5 [3]: +3
- viscosity in response to increasing shear rate [4]: exhibit sheer thinning

Compound: Ac-KANAKANAKANA-NH2 [KANA12]
- Net charge at pH 7.5 [3]: +3

Compound: Ac-KIQIKIQIKIQIK-NH2 [KIQI13]
- rheological properties (mechanical strength) before and after exposure to DMEM ([1]; 0.9% NaCl): increased after DMEM treatment
- rheological properties (mechanical strength) before and after exposure to DMEM [1]: increased after DMEM treatment
- Net charge at pH 7.5 [3]: +4
- submucosal elevation after injection (pig stomach submucosa): resulted in submucosal elevation
- submucosal elevation over time compared with saline and MucoUp (pig stomach submucosa): better submucosal elevation than saline and MucoUp®

Compound: Ac-KLDLKLDLKLDL-NH2 [KLDL12, reference compound]
- Net charge at pH 7.5 [3]: 0
- Net charge at pH 7.5 ([3]; listed as KLD12): about zero
- Appearance at different pH: At pH 7.5 [2]: phase separation and cloudy appearance

Compound: Ac-KLNLKLNLKLNLK-NH2 [KLNL13]
- Net charge at pH 7.5 [3]: +4

Compound: Ac-KLNLKLNLKLNLKLNLK-NH2 [KLNL17]
- Net charge at pH 7.5 [3]: +5

Compound: Ac-KLTLKLTLKLTL-NH2 [KLTL12]
- Net charge at pH 7.5 [3]: +3

Compound: Ac-KVNVKVNVKVNV-NH2 [KVNV12]
- Net charge at pH 7.5 [3]: +3

Compound: Ac-LKLNLKLNLKLN-NH2 [LKLN12]
- Net charge at pH 7.5 [3]: +3

Compound: Ac-LNLKLNLKLNLK-NH2 [LNLK12]
- Net charge at pH 7.5 [3]: +3

Compound: Ac-NLDLNLDLNLDL-NH2 [NLDL12]
- Net charge at pH 7.5 [3]: −3

Compound: Ac-NLKLNLKLNLKL-NH2 [NLKL12]
- Net charge at pH 7.5 [3]: +3
- submucosal elevation after injection (pig stomach submucosa): resulted in submucosal elevation
- submucosal elevation over time compared with saline and MucoUp (pig stomach submucosa): better submucosal elevation than saline and MucoUp®

Compound: Ac-QIKIQIKIQIKIQ-NH2 [QIKI13]
- Net charge at pH 7.5 [3]: +3

Compound: Ac-RADARADARADARADA-NH2 [RADA16, reference compound]
- net charge as a function of pH ([3]; around neutral pH): about 0
- period after injection until mucosal aggregation (pig stomach submucosa; pig, in vivo, pH 2.5): 10 to 15 min
- Appearance at different pH: At pH 7.5 [2]: precipitates; also recorded: phase separation and cloudy appearance
- mucosal aggregation at injection sites (porcine esophagus mucosa; pig, in vivo): Mucosal aggregation was observed
- Appearance of stomach mucosa (porcine esophagus mucosa; pig, in vivo, pH 2.5): cloudy/aggregation

Compound: Ac-RANARANARANARANA-NH2 [RANA16]
- Net charge at pH 7.5 [3]: +4
